Data on one molecule can be found in patent publication US9567641B2, “Combination therapy for the treatment of cancer using an anti-C-met antibody” (SAMSUNG ELECTRONICS CO., LTD., priority 2013, dated 2017).

Type in all cases: cell-based
Experiment [1] has as its system L3-1Y/IgG2 antibody resistance acquired EBC1 lung cancer cells. Nature of the experiment: Cell viability, CellTiter Glo, resistance-acquired cell line. The conditions noted are these: L3-1Y/IgG2 antibody alone. The method, then:
To verify whether or not the resistance acquired by repetitive administration of anti-c-Met antibody can be overcome by BCL2L1 inhibition, L3-1Y/IgG2 antibody resistance acquired EBC1 cells, where the resistance against L3-1Y/IgG2 antibody is acquired by treating EBC1 lung cancer cells (JCRB, JCRB0820) with the L3-1Y/IgG2 antibody for at least 3 months, were used. The L3-1Y/IgG2 antibody resistance acquired EBC1 lung cancer cells were prepared referring to Example 4.3.
5000 cells of the L3-1Y/IgG2 antibody resistance acquired EBC1 cells were seeded onto a 96-well plate and 24 hours after, the plate was treated with a BCL2 family inhibitor, ABT-263 (Abbott Laboratories) and 72 hours later after the antibody treatment, a change in the number of cells was measured using CellTiter Glo assay. ABT-263 was treated at a fixed concentration of 0.5 uM, and the L3-1Y/IgG2 antibody was treated by ⅕ dilution each time starting from 2 ug/ml.
Background: ATP-based viability assays read luminescence as a measure of living cells.

Experiment [2] deals with MKN45 gastric cancer cell line with acquired resistance against L3-1Y/IgG2 antibody. The experiment is described as above. The method, then: To see whether the treatment RAF1 siRNA can overcome resistance acquired due to the repetitive treatment of an antibody, tests were carried out using MKN45 gastric cancer cell line which had been treated by L3-1Y/IgG2 antibody for 3 months or longer and acquired resistance against it. The resistance-acquired MKN45 gastric cancer cell line was prepared as follows: MKN45 cells (JCRB, JCRB0254) were treated with L3-1Y/IgG2 antibody in amounts being increased over 3 months or longer. The amount of L3-1Y/IgG2 antibody to be treated started from its initial treatment concentration of 1 ug/ml and was increased up to 10 ug/ml until resistance occurred. To confirm the acquisition of L3-1Y/IgG2 antibody resistance, the resistance-acquired clones were treated or not treated with L3-1Y/IgG2 antibody and then incubated, followed by CTG assays.
As a control group, All Negative control siRNA (Qiagen, cat. no. 1027281) was used, and as a target siRNA, a mixture of two kinds of siRNAs (see Table 7) that had effects during the screening was used. […]
(§1) 5000 cells of MKN45 cells which have acquired resistance against L3-1Y/IgG2 antibody were seeded onto a 96-well plate, and 24 hours after, the plate was treated with L3-1Y/IgG2 antibody and an ITGB3 inhibitor, cilengitide (Merck KGaA, EMD 121974). 72 hours later after the treatment, a change in the number of cells was measured using CellTiter Glo assay. The MKN45 cells which have acquired resistance against L3-1Y/IgG2 antibody were prepared referring to Example 4.3. Cilengitide was treated at a fixed concentration of 10 uM, and the L3-1Y/IgG2 antibody was treated by ⅕ dilution each time starting from 2 ug/ml. For comparison, the same test was conducted using L3-1Y/IgG2 antibody alone.
as §1, with “AKT” for “ITGB3”, “MK-2206” for “cilengitide”, “& Co Inc).” for “KGaA, EMD 121974).”, “MK-2206” for “Cilengitide”, “5” for “10”
To verify whether or not the resistance acquired by repetitive administration of anti-c-Met antibody can be overcome by BCL2L1 inhibition, L3-1Y/IgG2 antibody resistance acquired MKN45 cells, where the resistance against L3-1Y/IgG2 antibody is acquired by treating MKN45 gastric cancer cells (JCRB, JCRB0254) with the L3-1Y/IgG2 antibody for at least 3 months, were used. The L3-1Y/IgG2 antibody resistance acquired MKN45 gastric cancer cells were prepared referring to Example 4.3. […]

Experiment [3] has as its system MKN45 gastric cancer cell line. Briefly: Synthetic lethal screening: siRNA plus anti-c-Met antibody, sensitization index (SI) by CellTiter Blue. Particulars: MKN45 cells, 5 days. The method, then: To search genes capable of increasing efficacy when suppressed together with an anti-c-Met antibody, synthetic lethal screening was conducted using MKN45 gastric cancer cell line (JCRB, JCRB0254). The synthetic lethal screening was conducted using a total of 1310 genes related to c-Met including 638 genes of EGFR library (Science Signaling, 3, ra67).
First, 0.3 ul of RNAiMax (Life Technologies) and a mixture of two different kinds of 20 nM siRNAs (Qiagen) were added to a 96-well plate, which was incubated at a room temperature for 15 min, wherein RNAiMax and siRNAs were diluted in Opti-MEM (Life Technologies) and a total mixture volume was adjusted to reach 22 ul or so. 78 ul of MKN45 cells diluted in a 5% FBS-containing RPMI1640 medium (GIBCO) were seeded onto each well of the 96-well plate so that each well contained 5000 cells. […]
After 5 days, 20 ul of a diluting solution of CellTiter Blue (Promega, G8081) and HBSS at 1:1 was added to each well, which was incubated at 37° C. for 4 hours. Then, the number of cells was counted via fluorescence signals (560/590 nm), which were measured using Envision 2104 Multi-label Reader (Perkin Elmer).
Since an increase degree in the efficacy of an anti-c-Met antibody to be caused by the expression suppression of each gene was measured as a reduction in cell viability, SI (sensitization index) was calculated. […]
On the technique in general: The colour change of resazurin is a common sign of viable cells or microbes.

B1: L3-1Y/IgG2: anti-c-Met antibody: huAbF46-H4-A1 heavy chain variable region, human IgG2 hinge and constant region, kappa light chain with H36Y (antibody)
heavy: EVQLVESGGGLVQPGGSLRLSCAASGFTFTDYYMSWVRQAPGKGLEWLGFIRNKANGYTTEYSASVKGRFTISRDNSKNTLYLQMNSLRAEDTAVYYCARDNWFAYWGQGTLVTVSSASTKGPSVFPLAPCSRSTSESTAALGCLVKDYFPEPVTVSWNSGALTSGVHTFPAVLQSSGLYSLSSVVTVPSSNFGTQTYTCNVDHKPSNTKVDKTVERKCCVECPPCPAPPVAGPSVFLFPPKPKDTLMISRTPEVTCVVVDVSHEDPEVQFNWYVDGVEVHNAKTKPREEQFNSTFRVVSVLTVVHQDWLNGKEYKCKVSNKGLPAPIEKTISKTKGQPREPQVYTLPPSREEMTKNQVSLTCLVKGFYPSDIAVEWESNGQPENNYKTTPPMLDSDGSFFLYSKLTVDKSRWQQGNVFSCSVMHEALHNHYTQKSLSLSPGK
light: DIQMTQSPSSLSASVGDRVTITCKSSQSLLASGNQNNYLAWYQQKPGKAPKMLIIWASTRVSGVPSRFSGSGSGTDFTLTISSLQPEDFATYYCQQSYSRPYTFGQGTKVEIKRTVAAPSVFIFPPSDEQLKSGTASVVCLLNNFYPREAKVQWKVDNALQSGNSQESVTEQDSKDSTYSLSSTLTLSKADYEKHKVYACEVTHQGLSSPVTKSFNRGEC
On to B1, for which the “cancer cell growth inhibitory effect (cell viability)” value in experiment [1] is reported as “did not occur”. Further, in experiment [2] (L3-1Y/IgG2 antibody alone (1/5 dilutions from 2 ug/ml), 72 h), the “growth inhibitory effect (cell viability)” value is recorded as “did not occur”. The “cancer cell growth inhibitory efficacy (cell viability)” value in experiment [2] (L3-1Y/IgG2 antibody alone (negative control siRNA)) was “did not occur”. Moreover, the “final concentration that is approximately IC25~IC35” value in experiment [3] is listed as around 0.0625 μl/ml.
